Source: the nanobody polyreactivity screen of Harvey et al. (2022)

Assay: yeast display, Sf9 membrane polyspecificity reagent, FACS + sequencing; frameworks hold sequencing errors
In short: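 Galactose-induced (36–48 hours) yeast carrying a synthetic nanobody display library were exposed to 10% biotinylated, detergent-solubilized Sf9 membrane reagent at 4 °C for 1 hour. FACS followed streptavidin microbead enrichment, using low and high (top ~1%) gates for expression (anti-HA) and reagent binding (streptavidin). Colony PCR, MiSeq 2 × 250 sequencing and CDR-length filtering followed. Labels for polyreactivity reflect the gate of origin.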

Row | Sequence | polyreactivity (PSR sort gate)
1 | QVQLVESGGGLVQAGGSHRLSCAASGSTFVSNAMGGYRQAPGKERELVAGITFSGGSTYYADSVKGRFTISRDNAKNAVYLQMNSVKPEDTAVYYCAKRTYPSFYYWGQGTKVTVSS | low polyreactivity
2 | QVQLVESGGGLVQAGGSHRLSCAASGSTLGDYAMGWYRQAPGKERELVAAISNGVSTNYADSVKGRFTISRDNAKNTVYLQKNSLKPVDTAVYYCNAGSGWGSLLEYDYWGQGTKVTVSS | low polyreactivity
3 | QVQLVESGGGLVQAGGSHRLSCAPSGRTYYMYAMGWYRPAPGKEREFVAAITSGGSRNYADSVKGRFTISRDNAKKTVYLQMNSLKPEDTAVYYWARYRGYWGRYYGVDYGYWGQGTQVTVSS | high polyreactivity
4 | QVQLVESGGGLVQAGGSHRLSCDSSGTFKWYAMGWYRQAPGKERELVAVISTSGGTTNYADSVKGRFTISLDNAKNTVYLQMNSLKPEDTAVYYCNAAKLFRYDYWGQGTQVTVSS | high polyreactivity
5 | QVQLVESGGGLVQAGGSHRLSCSASGSNFRDYAMGWYRQAPGKERELVAAISWSSSRTYYADSVKGRFTISRDNAKNTVYLQMNSLKPEDTAVYYCNKLSIWSYYFGPYGYDYWGQGTQVTVSS | low polyreactivity
6 | QVQLVESGGGLVQAGGSHRLSSAASGSTFAKNAMGWYRQARGKESELVATISRGGSTNYADSVKGRFTISRDNAKNTVYLQMNSLKPEDTAVYYCNADRVRTAVYSYVYAYGIMNYSGQGTQVTVSS | low polyreactivity
7 | QVQLVESGGGLVQAGGSHRLTCAASGRTFIFYAMGWYRPEPGKERELVAAITYSGTSTYYADSVKGRFTISRDNAKNTVYLQMNSLKPEDTAVYYCAKDGQRDANYYWGQGTQVTVSS | low polyreactivity
8 | QVQLVESGGGLVQAGGSIRLSCAASASIFQSYAMGWYRQAAGKERELVATITYSAGSTYYSDSVKGRFTITRDNAKNTVYLQMNSLKPEDTAVYYCDARRRGTIKTRMDYWGQGTQVTVSS | high polyreactivity
9 | QVQLVESGGGLVQAGGSIRLSCAASGFIFGGYAMGWYRQAPGKERELVAAITRSGGSTYYADSVKGRFTISRDNAKTTVYFQMNSLKPEDTAVYYCAAVPYRKHSYPFRLNYWGQGTQVTVSS | high polyreactivity
10 | QVQLVESGGGLVQAGGSIRLSCAASGFIFNHYAMGWYRQAPVKEREFVAAISWSGTRTYYADSVKGRFTISRDNAKNTVYLQMNSLKPEDTAVYYCAADVWGPYDYWGQGTQVTVSS | low polyreactivity
11 | QVQLVESGGGLVQAGGSIRLSCAASGFTFAKYSMGWYRQAPVKERELVATITRGGNTYYADSVKGRFTISRDNAKNTVYLQMNSLKPEDTAVYYCAASWYRFSQYKYYYWGQGTKVTVSS | high polyreactivity
12 | QVQLVESGGGLVQAGGSIRLSCAASGFTFYYNTMGCYRQAPGKERELVAAISYSAGSTFYADSVKGRFTISRDNAKNTVYLQMNSLKTEDTAVYYCAAGRPRRHKGYHFGYWGQGTQVTVSS | low polyreactivity
13 | QVQLVESGGGLVQAGGSIRLSCAASGITFYRNARGWYRQAPGKEMELVAAITWNGGRTYYADSVKGRFTISRDNAKNTVYLQMNSLKPEDTAVYYCAAAYPTYRHYYWGQGTQVTVSS | low polyreactivity
14 | QVQLVESGGGLVQAGGSIRLSCAASGITFYVYTLGWYRQAAGKERELVAAINGSGGSTNYADSVKGRFTITRDNEKNTVYLQMNSLKREDTAVYYCNAPVVYFWPLNFDYWGQGTQVTVSS | low polyreactivity
15 | QVQLVESGGGLVQAGGSIRLSCAASGNTFRYYAMGWYRQAPGKERELVAGISRRGGSTYYADSVKGRFTISRDNAKNTVYLQMNSLKPEDTAVYYCNAVGGNGAVVAYGYWGQGTQVTVSS | high polyreactivity
16 | QVQLVESGGGLVQAGGSIRLSCAASGRIFHPYAMGWYRQAPGKERELVATISWSGGSTTYADSVKGRFTISRDNAKNTVYLQMNSLKPEDTAVYYCNADYWWSYVRFDYWGQGTQVTVSS | low polyreactivity
17 | QVQLVESGGGLVQAGGSIRLSCAASGRIFWGNGMGWYRQAPGKEREFVAAISKSGGSTYYPDSVKGRFTISRDNAKNTVYLQMNSLKPEDTAVYYCAARAPYSYSGYGYWGQGTQVTVSS | high polyreactivity
18 | QVQLVESGGGLVQAGGSIRLSCAASGRIFYTYAMGWYRPAPGKERELVAAISSRTGSTYYADSVKGRFTISRDNAKNTVYLQMNSLKPEDTAVYYCNAYRLRYGYDYWGQGTQVTVSS | high polyreactivity
19 | QVQLVESGGGLVQAGGSIRLSCAASGRTFSAYAMGWYRQEPGKVRELVARITSVDSTNYADSVKGRFTISRDNAKNTVYLQMNSLKPEDTAVYYSNATFGYPLVDYDDYWGQGTQVTVSS | low polyreactivity
20 | QVQLVESGGGLVQAGGSIRLSCAASGRTFYLYAMGWYRQAPGKERELVAVISRRGGRTYYADSVKGRFTISRDNSKNTVYLQMNSLKPEDTAVYYCAVYSFGMGYWGQGTQVTVSS | high polyreactivity
21 | QVQLVESGGGLVQAGGSIRLSCAASGSTFSHNAMGWYRQAPGKERELVAAIRWNGGSTYYADSVKGRFTISRDNAKNTVYLQMNSLKPEDTAVYYCAKENHYFTQGYGYWGQGTQVTVSS | low polyreactivity
22 | QVQLVESGGGLVQAGGSIRLSCAASGVIFYGNSIGWYRQAPGKERELVAAISRRGGRTYYADSVKGRFTNSRDNAKITVYLQMNSLKPEDTAVYYCAADVIYSGDYWGQGTQVTVSS | high polyreactivity

Row | Sequence | polyreactivity (PSR sort gate)
23 | QVQLVESGGGLVQAGGSIRLSCAPSGRTFRYYAMGWYRQAPGKERELVAAISRSGGSTYYADSVKGRFTISRDNAKNTVYLQMNSLKPEVTAVYYCADRYYVPWFGPSKYTPYDYWGQGIQVTVSS | high polyreactivity
24 | QVQLVESGGGLVQAGGSISLSCAASGFIFDDNAMGCYRQAPGKERELVAAISQGAGRTYYADSVKGRFTISRDNAKNTVYLQMNSVKPEDTAVYYCNSGRPKYWYGSKYDYWGQGTQVTVSS | low polyreactivity
25 | QVQLVESGGGLVQAGGSLCLSCAASGIFVYNAIGWYRQAPGKEREFVAAINKSGASTFYADSVKGRFTISRDNAKNTVYLQMNRLKPEDTAVYYCRERDYWGQGTQVTVSS | low polyreactivity
26 | QVQLVESGGGLVQAGGSLGLSCAASGFTFRNYAMGCYRQAPGKERELVATLSASSGSTYYADSVKGRFTISRDNAKNTVYLQMNSLKPEDTAVYYCAAGLSGYSRKMYYWGQGTQVTESS | high polyreactivity
27 | QVQLVESGGGLVQAGGSLGLSCAASGIILCYYDMGWYRQAPGKERELVAAITYSGSSTYYADSVKGRFTISRDNAKNTVYLLMNSLKPEDTAVYYCNAGWFYGAIWNYDYWGQGTKVTVSS | low polyreactivity
28 | QVQLVESGGGLVQAGGSLGLSCAASGLTFSRYAMGWYREAPGKEWELVASISQGGGSTYYADSVKGRFTISRDNPKKTVYLQMNSLKPEDTAVYYCIRLTIGSSSYDYWGQGTKVTVSS | high polyreactivity
29 | QVQLVESGGGLVQAGGSLGLSCAASGRTFAKYAMGWYRQAPGKERELVAAITRGDTTNYADSVKGRFTISRDNAKNTGYLQMHRLKPEDTAVYYCAATPDPPHTYEYWGQVTQVTVSS | low polyreactivity
30 | QVQLVESGGGLVQAGGSLGLSCAASGSIFSSNVMGWYRQAPGKERELVAAISGGGGSTYYADSVKGRFTISRDNAKNTGYLQMNSLKPEDTAVYYCNRVTTWARTPKAYGYWGQGTQVTVSS | high polyreactivity
31 | QVQLVESGGGLVQAGGSLGLSCAASGSIFTNYAMGWYRQAPGKERELVAAISVGGGRTYYADSVKGRFTISRDNAKNTVDLQMNSLKPEDTAVYYCAARYPFGSLGRYGYWGQGTQVTVSS | high polyreactivity
32 | QVQLVESGGGLVQAGGSLGLSCAASGSILYYNAMGWYRQAPGKERELVAAISWSGGSKYDADSVKGRFTISRDNAKNTVYLQMNSQKPEDTAVYYCLYYRSDEMDYWGQGTQVTVSS | high polyreactivity
33 | QVQLVESGGGLVQAGGSLGLSCAASGSTFLHDAMGWYRQAPGKERELVAAISVSGVRTYYADSVKGRFTISRDNGKNTVYLQMNSLKPEDTAVYYCAADGHHADYDFWGQGTQVTVSS | low polyreactivity
34 | QVQLVESGGGLVQAGGSLGVSCAASGSTFRTYAMGWYRQAPGKERELVAAISQRGGSTYYADSVKGRFTISRDNAKNTVYLQMNSLTPEDSAVYYCAARYGVRYIYRMDYWGQGSQVTVSS | high polyreactivity
35 | QVQLVESGGGLVQAGGSLHLSCAASGSIFRKNAMGWYRQAPGKERELVAVITSSGASTYYADSVKGRFTISRDNAKNTVYLQMNSLKPEDTAVYYCNAPSFYTKKMYSWGQGTQVTVSS | high polyreactivity
36 | QVQLVESGGGLVQAGGSLLLSCAASASTISYKAMGWYRHAPGQETELVAAIDRSVSTNYADSVKGRFTISRDNAKNTVYLQMNSLKPEDTAVYYCNARHPTDDIVIYDYWGQGTQVTVSS | low polyreactivity
37 | QVQLVESGGGLVQAGGSLLLSCAASGFTFQYYAMGWYRPEPGKERELVASISWSGGSTYYADSVKGRFTISRDNAKNTVYLQMHSLKPEDTAVYYCAATVTYFFSSARFSAYGYWGQGTQVTVSS | high polyreactivity
38 | QVQLVESGGGLVQAGGSLLLSCAASGFTFSYYAMGWYRPAPGKERELVAAINWNGGSTYYADSVKGRFTISRDNAKNTVYLQMNSLKPEDTAVYYCNARQSYRYSQHGYWGQGTQLTVSS | high polyreactivity
39 | QVQLVESGGGLVQAGGSLLLSCAASGIIFSEYDMGWYRQAPGKESELVAAISKSGGRTYYADSVKVRFTISRDNAKNTGFLQMNSLKQEDTAVYYCAAGGRFRFTQYYKHYYWGQGTQVNVSS | high polyreactivity
40 | QVQLVESGGGLVQAGGSLLLSCAASGITFIRNGMGWYRPAPGKERELVAAISDTGARTYYADSVKGRFTISRDNAKNTVYLQMNSLKPEDTAVYYCAADFQTYWSHLYGYIGQYDYWGQGTQVTVSS | low polyreactivity
41 | QVQLVESGGGLVQAGGSLLLSCAASGRIFRVYAMGWYRQAPGKERELVASITTSGSTYYADSVKGRFTISRDNAKNTVYLQMNSLKPEDTAVYYCAVDNYYTPWYPYLGYDSWGQGTQVTVSS | low polyreactivity
42 | QVQLVESGGGLVQAGGSLLLSCAASGRIFRYYAMGWYRQATGKERELVAGISWRGSSTYYADSVKGRFTISRDNATNTVYLQMNSLKPEDTAVYYCNRDQSYIPFTGGRFYYWGQGTQVTVSS | high polyreactivity
43 | QVQLVESGGGLVQAGGSLLLSCAASGRTFILNAMGWYSQAPGKERELVAAISWSGGSTYYADSVKGRFTISRDNAKNTVYLQMNSLKPEDTAVYYCAAETYAYLFHTYDYWGQGTQVTVSS | low polyreactivity
